Measured values published in US20020034767.

Test system: G protein βγ subunits

β-adrenergic receptor kinase
rhodopsin phosphorylation in the presence or absence of 100 nM G protein βγ subunits: βARK is significantly activated in the presence of G protein βγ subunits
